The record followed here is patent US20060003931A1.

The IC50 is the concentration needed to halve the response being measured. A lower IC50 goes with higher potency.

For assay [1], the target named is Met-IgG fusion protein (Homo sapiens (Human)) (UniProt P08581). The assay is described as follows: HGF β/Met-IgG competition ELISA; tracer 250 nM biotinylated wildtype HGF β.
Assay [2] shares this target. The assay is described as follows: HGF β/Met-IgG competition ELISA; tracer biotinylated HGF β. A general note: In an ELISA, binding on a coated surface is turned into a signal by an enzyme label.

UniProt P08581, sequence (P08581 25-930 limits assumed, form in doubt): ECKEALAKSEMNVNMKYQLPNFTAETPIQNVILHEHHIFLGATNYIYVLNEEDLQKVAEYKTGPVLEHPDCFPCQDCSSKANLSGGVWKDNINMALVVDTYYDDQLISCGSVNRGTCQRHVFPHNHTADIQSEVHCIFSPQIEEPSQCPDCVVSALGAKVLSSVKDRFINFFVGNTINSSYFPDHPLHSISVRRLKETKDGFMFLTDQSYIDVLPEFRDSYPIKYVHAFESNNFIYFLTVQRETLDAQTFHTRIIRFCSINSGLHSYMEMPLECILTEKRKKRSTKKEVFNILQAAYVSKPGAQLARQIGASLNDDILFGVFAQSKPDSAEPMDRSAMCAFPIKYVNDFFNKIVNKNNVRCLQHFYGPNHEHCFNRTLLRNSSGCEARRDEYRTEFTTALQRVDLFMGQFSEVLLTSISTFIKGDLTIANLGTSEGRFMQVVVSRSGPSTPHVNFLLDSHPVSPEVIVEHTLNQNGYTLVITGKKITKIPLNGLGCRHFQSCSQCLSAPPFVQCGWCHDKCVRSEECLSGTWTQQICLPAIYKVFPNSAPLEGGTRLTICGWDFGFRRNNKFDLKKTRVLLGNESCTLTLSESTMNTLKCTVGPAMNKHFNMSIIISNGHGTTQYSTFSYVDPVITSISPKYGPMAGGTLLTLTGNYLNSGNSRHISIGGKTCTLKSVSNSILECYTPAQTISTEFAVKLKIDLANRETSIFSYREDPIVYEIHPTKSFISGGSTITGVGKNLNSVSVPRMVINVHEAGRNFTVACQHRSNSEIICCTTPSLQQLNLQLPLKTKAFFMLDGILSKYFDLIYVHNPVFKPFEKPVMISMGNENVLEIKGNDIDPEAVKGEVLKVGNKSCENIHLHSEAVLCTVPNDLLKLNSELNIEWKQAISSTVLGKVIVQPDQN

For the substance “proHGF β (HGF residues Asn479 to Ser728 with R494E) (from UniProt P14210 479-728) (ligand)”, in assay [1], the IC50 worked out at 11.6 µM and the fold reduced binding against HGF β was found to be 13.5 fold. In assay [2], this substance showed a relative IC50 (normalized to HGF β) (relative to HGF β) of 21.
